Laboratory results published in patent US20250270315A1 (ELPISCIENCE SUZHOU BIOPHARMA, published 2025).
Read-outs that look alike come from different tables or passages of the source.

Key:
[1] = target: T1, full length human SIRPα v1 stably expressed on CHOK1 or 293F cells (human, UniProt P78324 31-504); assay: FACS, CHOK1-hSIRPα v1 cells
T1 construct: whole, on cells; also called CHOK1-human SIRPα v1; CHOK1-hSIRPα v1

[2] = target: T2, human SIRPγ stably expressed on 293F cells (human, UniProt Q9P1W8 29-387); assay: FACS, 293F-human SIRPγ cells
T2 construct: whole, on cells

[3] = target: T3, human SIRPα v1 ECD recombinant protein (tag not given) (human, UniProt P78324 31-373); assay: competitive ELISA, mFc-CD47 ECD on coated SIRPα v1 ECD
T3 construct: extracellular domain; also called biotin labeled soluble human SIRPα v1 ECD recombinant protein; ELISA microplate coated human SIRPα v1 ECD
Experimental: (§1) Competitive ELISA assay was used to determine whether the purified chimeric antibodies can block CD47 and SIRPα interaction. Briefly, antibody and mFc tagged human CD47 ECD recombinant protein were co-incubated with ELISA microplate coated human SIRPα v1 ECD (FIGS. 6A and 6B) or human SIRPα v2 ECD (FIGS. 7A and 7B) recombinant protein. After washing, HRP labeled anti-mouse Fc 2nd antibody (Sigma) was added and incubated at 37° C. for 1 hour. Then, 100 μl/well of TMB solution (Biotechnology) was added. After incubation for 15 minutes at room temperature, the reaction was stopped by the addition of 50 μl of 1N HCl. OD 450 nm was read. Blocking ratio was determined by blockade of human CD47 ECD recombinant protein binding to ELISA microplate coated human SIRPα ECD recombinant protein. Other than 005, all antibodies as tested can block interaction between human CD47 and different human SIRPα variants.

[4] = target: T4, human SIRPβ stably expressed on CHOK1 cells (human, UniProt O00241 30-398); assay: FACS, CHOK1-hSIRPβ cells (columns c6 and c7 read as swapped)
T4 construct: whole, on cells; also called CHOK1-human SIRPB; CHOK1-hSIRPβ
Description: (§2) All the humanized antibodies as tested were confirmed to retain the similar activity as the parental antibody of 025c to bind to SIRP family members.

[5] = target: T5, human SIRPα v2 ECD recombinant protein (tag not given) (human); assay: competitive ELISA, coated human SIRPα v2 ECD, blocked ligand mFc tagged human CD47 ECD
T5 construct: extracellular domain; also called ELISA microplate coated human SIRPα v2 ECD
Experimental: as §1

[6] = target: T6, cyno SIRPγ ECD recombinant protein (cyno); assay: ELISA, cyno SIRPγ ECD
T6 construct: extracellular domain

[7] = target: T1, full length human SIRPα v1 stably …; assay: FACS, CHOK1-hSIRPα v1 cells; remark: listed apart in the source
Description: as §2

T1 sequence (P78324 31-504): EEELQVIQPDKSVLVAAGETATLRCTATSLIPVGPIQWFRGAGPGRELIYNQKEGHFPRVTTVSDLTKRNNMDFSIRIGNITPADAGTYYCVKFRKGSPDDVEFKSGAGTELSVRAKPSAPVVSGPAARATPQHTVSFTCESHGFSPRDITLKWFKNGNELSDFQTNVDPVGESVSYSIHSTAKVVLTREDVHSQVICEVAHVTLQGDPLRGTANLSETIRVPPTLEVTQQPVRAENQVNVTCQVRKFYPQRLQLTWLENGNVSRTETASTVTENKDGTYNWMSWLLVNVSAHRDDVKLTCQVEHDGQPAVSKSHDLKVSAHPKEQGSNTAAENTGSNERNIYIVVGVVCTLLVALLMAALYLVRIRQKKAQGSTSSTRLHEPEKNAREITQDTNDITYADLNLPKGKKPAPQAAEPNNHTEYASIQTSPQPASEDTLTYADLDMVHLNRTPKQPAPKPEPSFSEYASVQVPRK
T2 sequence (Q9P1W8 29-387): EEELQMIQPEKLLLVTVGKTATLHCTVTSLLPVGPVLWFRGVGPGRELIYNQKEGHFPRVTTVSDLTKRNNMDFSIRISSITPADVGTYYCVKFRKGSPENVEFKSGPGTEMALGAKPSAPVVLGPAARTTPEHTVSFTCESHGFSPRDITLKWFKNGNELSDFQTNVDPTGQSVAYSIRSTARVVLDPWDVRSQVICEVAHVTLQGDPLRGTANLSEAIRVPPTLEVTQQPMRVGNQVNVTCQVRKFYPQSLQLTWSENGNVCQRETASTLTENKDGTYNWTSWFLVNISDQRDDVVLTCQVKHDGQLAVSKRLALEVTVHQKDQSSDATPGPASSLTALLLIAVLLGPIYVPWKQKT
T3 sequence (P78324 31-373): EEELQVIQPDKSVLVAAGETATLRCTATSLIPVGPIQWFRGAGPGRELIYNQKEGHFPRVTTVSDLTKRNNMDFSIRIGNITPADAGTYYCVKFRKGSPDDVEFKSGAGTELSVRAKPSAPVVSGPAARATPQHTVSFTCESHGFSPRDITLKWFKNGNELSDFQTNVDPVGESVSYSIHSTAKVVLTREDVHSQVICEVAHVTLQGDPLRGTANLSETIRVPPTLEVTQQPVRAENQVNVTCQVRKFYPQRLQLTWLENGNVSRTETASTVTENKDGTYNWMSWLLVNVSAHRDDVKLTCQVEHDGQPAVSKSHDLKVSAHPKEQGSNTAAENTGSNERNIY
T4 sequence (O00241 30-398): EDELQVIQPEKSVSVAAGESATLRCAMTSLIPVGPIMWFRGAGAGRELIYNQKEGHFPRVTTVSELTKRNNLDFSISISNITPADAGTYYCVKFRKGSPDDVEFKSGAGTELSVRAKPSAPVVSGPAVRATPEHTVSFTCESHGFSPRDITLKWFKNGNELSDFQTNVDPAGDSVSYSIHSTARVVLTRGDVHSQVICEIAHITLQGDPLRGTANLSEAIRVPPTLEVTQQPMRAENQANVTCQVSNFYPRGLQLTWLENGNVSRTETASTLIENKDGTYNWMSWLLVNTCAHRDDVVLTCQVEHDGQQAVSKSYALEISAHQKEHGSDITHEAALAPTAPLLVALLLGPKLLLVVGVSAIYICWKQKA

EC50 [1]: 1.49 nM
TOP MFI [1]: 77600 MFI
EC50 [2]: 0.11 nM
TOP MFI [2]: 3220 MFI
IC50 [3]: 2.12 nM
TOP blocking (%) [3]: 96.5%
EC50 [4]: 0.65 nM
TOP MFI [4]: 72300 MFI
IC50 (read off the curve) [5]: ~2 nM
EC50 [6]: 0.36 nM
TOP OD450 [6]: 3.07 OD450
EC50 [7]: 1.22 nM
TOP MFI [7]: 64700 MFI
B1: 025c (antibody, V domains shown)
VH: EVQLQQSGAELVKPGASVKLSCTASGFNIKDYYMHWVKQRTEQGLEWIGRIDPEDGETKYAPKFQGKATITADTSSNTAYLQLSSLTSEDTAVYYCDRGLAYWGQGTLVTVSA
VL: QIVLTQSPAIMSASPGEKVTLTCSASSSVSSSYLYWYQQKPGSSPKLWIYSTSNLASGVPARFSGSGSGTSYSLTISSMEAEDAASYFCHQWSSYPYTFGGGTKLEIK
notes: also called chimeric antibody 025c; parental antibody of 025c
